The experiment concerns the target Kuenenia stuttgartiensis hydrazine dehydrogenase (Kuenenia stuttgartiensis) (UniProt Q1PW30). Put plainly: crystal structure.
UniProt Q1PW30, sequence (Q1PW30 33-582): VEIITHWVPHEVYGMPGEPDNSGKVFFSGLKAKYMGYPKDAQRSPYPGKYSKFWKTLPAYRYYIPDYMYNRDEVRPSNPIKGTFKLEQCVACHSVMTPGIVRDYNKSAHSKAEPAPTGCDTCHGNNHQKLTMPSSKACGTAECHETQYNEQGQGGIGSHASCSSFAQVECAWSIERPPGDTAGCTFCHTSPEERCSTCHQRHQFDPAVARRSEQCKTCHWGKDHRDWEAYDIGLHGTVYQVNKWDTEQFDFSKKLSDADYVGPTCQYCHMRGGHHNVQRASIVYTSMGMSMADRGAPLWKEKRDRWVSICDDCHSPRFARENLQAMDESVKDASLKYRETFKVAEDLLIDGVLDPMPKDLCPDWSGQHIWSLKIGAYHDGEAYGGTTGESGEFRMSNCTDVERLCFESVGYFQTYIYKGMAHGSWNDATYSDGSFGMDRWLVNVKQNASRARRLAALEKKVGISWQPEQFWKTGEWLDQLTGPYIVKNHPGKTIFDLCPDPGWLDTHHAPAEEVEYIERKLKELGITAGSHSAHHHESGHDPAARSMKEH

“Kustc1130, endogenous, co-purified with K. stuttgartiensis HDH (from UniProt Q1PW30 33-582) (natural protein)” yielded a stoichiometry N (copies per assembly of 24 HDH monomers) of 12.

Source of the values: publication PMC6469936.
